Results as given in US7008922 (RIJKSUNIVERSITEIT TE LEIDEN, dated 2006).

Biological target: purified HLA-B7 (human)
Assay: competition with iodinated … for purified HLA-B7

IC50 [nM] | Binder
140 | SPAVDKAQAEL (Synthetic, HPLC-purified peptide; Differs from the SMCY peptide by A for S at position 3 and Q for R at position 8; also called peptide derived from the X chromosomal homolog SMCX (XE169)) [SMCX peptide SPAVDKAQAEL]
34 | SPSVDKARAEL (also called H-Y peptide; peptide 1171) [SMCY peptide SPSVDKARAEL]
